The text below walks through data of publication PMC3407115, “Characterization of Danio rerio Mn^2+-Dependent ADP-Ribose/CDP-Alcohol Diphosphatase, the Structural Prototype of the ADPRibase-Mn-Like Protein Family” (PLoS ONE, 2012).

Substitutions are numbered along the chain they refer to. Names and notes keep the numbering of the source.

One data set addresses T1, rat ADPRibase-Mn (Rattus norvegicus, UniProt Q5M886).
T1 construct: gene Adprm
T1 sequence (Q5M886 1-337): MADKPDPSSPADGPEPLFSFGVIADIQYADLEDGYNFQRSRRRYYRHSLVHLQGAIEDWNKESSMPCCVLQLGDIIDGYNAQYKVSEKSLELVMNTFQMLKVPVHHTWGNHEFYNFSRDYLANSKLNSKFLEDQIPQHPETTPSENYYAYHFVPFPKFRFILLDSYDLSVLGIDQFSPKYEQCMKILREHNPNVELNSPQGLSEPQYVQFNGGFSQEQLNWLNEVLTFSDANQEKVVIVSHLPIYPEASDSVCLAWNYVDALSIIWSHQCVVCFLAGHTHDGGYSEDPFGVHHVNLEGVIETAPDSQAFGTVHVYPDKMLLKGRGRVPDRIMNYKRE
Put plainly: hydrolysis assay. Format: biochemical. Conditions: behaves as with the zebrafish enzyme; no number given.

Substrate in data set [1]: N=c1c2ncn3c2ncn1[C@@H]1O[C@H](COP(=O)(O)OP(=O)(O)OC[C@H]2O[C@@H]3[C@H](O)[C@@H]2O)[C@@H](O)[C@H]1O
Description: estimated from inhibition of ADP-ribose hydrolysis by cADPR (equation II). Format: biochemical, Danio rerio. The conditions noted are these: competitive inhibition assumed, Ki taken as Km; 160 µM cADPR against 80 µM ADP-ribose. The source says:
estimated from inhibition of ADP-ribose hydrolysis by cADPR (equation II) on zebrafish ADPRibase-Mn

Substrate in data set [2]: Nc1ncnc2c1ncn2[C@@H]1O[C@H](CO)[C@H]2OP(=O)(O)O[C@H]21
Description: phosphate release coupled to alkaline phosphatase; Michaelis-Menten fit. Conditions: 5 mM MnCl2, 50 mM Tris-HCl pH 7.5, total activity (P-O2′ plus P-O3′ hydrolysis). It counts as biochemical, Danio rerio. The source says: (§1) phosphate release coupled to alkaline phosphatase; Michaelis-Menten fit on zebrafish ADPRibase-Mn

Substrate in data set [3]: NCCOP(=O)(O)OP(=O)(O)OC[C@H]1O[C@@H](n2ccc(N)nc2=O)[C@H](O)[C@@H]1O
Described as above. It counts as biochemical, Danio rerio. Conditions: 5 mM MnCl2, 50 mM Tris-HCl pH 7.5.
From the text: as §1

Substrate in data set [4]: C[N+](C)(C)CCOP(=O)(O)OP(=O)([O-])OC[C@H]1O[C@@H](n2ccc(N)nc2=O)[C@H](O)[C@@H]1O
The data set is described as above. It counts as biochemical, Danio rerio. The conditions noted are these: 5 mM MnCl2, 50 mM Tris-HCl pH 7.5.
From the text: as §1

Substrate in data set [5]: Nc1ccn([C@@H]2O[C@H](COP(=O)(O)OP(=O)(O)OC[C@H](O)CO)[C@@H](O)[C@H]2O)c(=O)n1
Described as above. It counts as biochemical, Danio rerio. Conditions: 5 mM MnCl2, 50 mM Tris-HCl pH 7.5.
From the text: as §1

Substrate in data set [6]: Nc1ncnc2c1ncn2[C@@H]1O[C@H](COP(=O)(O)OP(=O)(O)O)[C@@H](O)[C@H]1O
The description is as above. The conditions noted are these: 5 mM MnCl2, 50 mM Tris-HCl pH 7.5. It counts as biochemical, Danio rerio.
From the text: as §1

In the case of `Nc1ncnc2c1ncn2[C@@H]1O[C@H](CO)[C@H]2OP(=O)(O)O[C@H]21` [2′,3′-cAMP], the hydrolysis assay result on rat ADPRibase-Mn was “we did it now and found them to behave as with the zebrafish enzyme”.

B1: zebrafish ADPRibase-Mn (Danio rerio; M1S) (protein)
chain: SEDPVFTFGLIADVQYADIEDGENYLRTRRRYYRGSADLLRDAVLQWRRERVQCVVQLGDIIDGHNRRRDASDRALDTVMAELDACSVDVHHVWGNHEFYNFSRPSLLSSRLNSAQRTGTDTGSDLIGDDIYAYEFSPAPNFRFVLLDAYDLSVIGREEESEKHTHSWRILTQHNHNLQDLNLPPVSVGLEQRFVKFNGGFSEQQLQWLDAVLTLSDHKQERVLIFSHLPVHPCAADPICLAWNHEAVLSVLRSHQSVLCFIAGHDHDGGRCTDSSGAQHITLEGVIETPPHSHAFATAYLYEDRMVMKGRGRVEDLTITYS
notes: full-length ORF (BC054642 region 60-1028), N-terminal Met replaced by Ser; 8-His-MBP-TEV fusion expressed in E. coli BL21, tag cut with TEV protease
One may read the Km as the concentration of substrate that gives half-maximal velocity. By kcat is commonly meant the number of substrate molecules converted per active site and unit of time at saturation. For orientation: kcat/Km means the second-order rate constant that governs catalysis at low substrate concentration. With B1, the Km in data set [1] was 0.19 ± 0.025 mM; in data set [2] it was 0.76 ± 0.05 mM; in data set [3], 3.9 ± 1.3 mM; in data set [4] it was 12 ± 3 mM; in data set [5] it was 2 ± 1.4 mM; in data set [6] it was 2.65 ± 1.3 mM. Moreover, the kcat in data set [1] was 0.005 s⁻¹; in data set [2], 16.9 s⁻¹; in data set [3] it was 125 s⁻¹; in data set [4], 67.2 s⁻¹; in data set [5], 95.6 s⁻¹; in data set [6] it was 1.8 s⁻¹. The kcat/Km in data set [1] was 28 ± 3 M⁻¹ s⁻¹; in data set [2] it was 22000 ± 3000 M⁻¹ s⁻¹; in data set [3] it was 32000 ± 300 M⁻¹ s⁻¹; in data set [4], 5600 ± 800 M⁻¹ s⁻¹; in data set [5], 48000 ± 700 M⁻¹ s⁻¹; in data set [6], 660 ± 70 M⁻¹ s⁻¹.

B2: zebrafish ADPRibase-Mn (Danio rerio; H97A/M1S) (protein)
chain: B1 chain with H97A
notes: as for B1
Consider B2, for which the Km worked out at 1.7 ± 0.24 mM in data set [2]; 31 ± 0.8 mM in data set [3]; 43 ± 8 mM in data set [4]; 6.3 ± 0.9 mM in data set [5]; 19 ± 0.7 mM in data set [6]. For the same molecule, the kcat was found to be 29.7 s⁻¹ in data set [2]; 2.1 s⁻¹ in data set [3]; 0.8 s⁻¹ in data set [4]; 0.8 s⁻¹ in data set [5]; 0.2 s⁻¹ in data set [6]. Also, the kcat/Km in data set [2] was 18000 ± 1000 M⁻¹ s⁻¹; in data set [3], 70 ± 20 M⁻¹ s⁻¹; in data set [4], 20 ± 5 M⁻¹ s⁻¹; in data set [5], 120 ± 30 M⁻¹ s⁻¹; in data set [6], 11 ± 5 M⁻¹ s⁻¹.
